Test results reported in patent US20240376222A1 (University of Texas, published 2024).

Columns and labels:
[1] = target: T1, human TfR extracellular domain (ECD) (human, UniProt P02786 89-760); assay: phage ELISA, scFv phage on coated TfR, anti-M13-HRP, single point
T1 construct: extracellular domain; Bought protein; also called HuTfR; huTfR

[2] = target: T2, muTfR extracellular domain (ECD), His-tagged (mouse, UniProt Q62351 89-763); assay: competition ELISA on coated muTfR-His against 1 nM biotinylated Ab4, streptavidin-HRP
T2 construct: extracellular domain; Bought protein (Sino Biological); also called muTfR-His; muTfR ECD
Experimental: High-binding ELISA plates (Corning) were coated with muTfR-His at 2 μg/mL overnight at 4° C. After blocking with 1% BSA PBS, individual antibodies (at designated concentrations) and 1 nM biotinylated TfR Ab4 in 1% BSA PBS were incubated with coated muTfR for 2 hours at room temperature. After washing with PBS+0.05% Tween-20, streptavidin-HRP (Jackson ImmunoResearch) was added at 1:5000 concentration and incubated for 1 hour at room temperature. After washing with PBS+0.05% Tween-20, TMB substrate (Thermo Fisher Scientific) was added and incubated for 5 min before being stopped by 1N H₂SO₄. OD values were read at 450 nm.

[3] = target: T2, muTfR extracellular domain (ECD), …; assay: BLI, biotinylated VEGFA on streptavidin sensors, no antibody, then muTfR ECD
Experimental: To characterize the bispecific antibodies a BLI-based sandwich capture assay. The bispecific antibodies were first captured onto sensors via VEGF165A. After equilibrium in blank buffer, the sensor-captured bispecific antibodies were then incubated with muTfR ECD. The VEGF-Trap/TfR bispecific antibodies were shown simultaneously binding to both VEGF165 and TfR. To further validate the antigen binding, we introduced another three control groups that missed one of the three binding partners (VEGFA, Ab, or TfR). […] Finally, the flat curves without TfR confirmed the observed binding signals in curves A and E were antibodies binding to TfR.
Streptavidin sensors (Fortebio) were used to capture biotinylated VEGFA proteins (Sino Biological). During all incubation steps, samples were kept at room temperature with 1000 rpm shaking. In the VEGFA loading step, 100 nM biotinylated VEGFA proteins were incubated with the sensors for the designated time. In the bispecific antibody interaction steps, 200 nM antibodies were used. In the muTfR incubation step, 100 nM muTfR-His (Sino Biological) were used. Between incubations, the sensors were dipped into blank kinetic buffers to allow the free dissociation of proteins.

T2 sequence (Q62351 89-763): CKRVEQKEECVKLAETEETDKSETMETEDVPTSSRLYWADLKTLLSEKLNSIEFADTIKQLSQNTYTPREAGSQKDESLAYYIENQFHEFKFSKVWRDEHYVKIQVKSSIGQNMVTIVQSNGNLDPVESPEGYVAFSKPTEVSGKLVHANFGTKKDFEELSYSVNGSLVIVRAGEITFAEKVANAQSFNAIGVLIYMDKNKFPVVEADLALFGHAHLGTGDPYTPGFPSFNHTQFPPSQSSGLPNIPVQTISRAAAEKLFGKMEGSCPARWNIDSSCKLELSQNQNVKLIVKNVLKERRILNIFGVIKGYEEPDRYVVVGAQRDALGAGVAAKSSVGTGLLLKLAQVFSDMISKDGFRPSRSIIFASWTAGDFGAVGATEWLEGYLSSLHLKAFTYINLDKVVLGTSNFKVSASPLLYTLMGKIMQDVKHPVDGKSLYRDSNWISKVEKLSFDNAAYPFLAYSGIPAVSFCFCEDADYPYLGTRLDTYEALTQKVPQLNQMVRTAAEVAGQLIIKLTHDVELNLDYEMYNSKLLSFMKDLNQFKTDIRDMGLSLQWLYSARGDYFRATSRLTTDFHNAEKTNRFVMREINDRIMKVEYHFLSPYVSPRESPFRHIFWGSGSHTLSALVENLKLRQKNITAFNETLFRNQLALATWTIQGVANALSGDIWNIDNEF
T1 sequence (P02786 89-760): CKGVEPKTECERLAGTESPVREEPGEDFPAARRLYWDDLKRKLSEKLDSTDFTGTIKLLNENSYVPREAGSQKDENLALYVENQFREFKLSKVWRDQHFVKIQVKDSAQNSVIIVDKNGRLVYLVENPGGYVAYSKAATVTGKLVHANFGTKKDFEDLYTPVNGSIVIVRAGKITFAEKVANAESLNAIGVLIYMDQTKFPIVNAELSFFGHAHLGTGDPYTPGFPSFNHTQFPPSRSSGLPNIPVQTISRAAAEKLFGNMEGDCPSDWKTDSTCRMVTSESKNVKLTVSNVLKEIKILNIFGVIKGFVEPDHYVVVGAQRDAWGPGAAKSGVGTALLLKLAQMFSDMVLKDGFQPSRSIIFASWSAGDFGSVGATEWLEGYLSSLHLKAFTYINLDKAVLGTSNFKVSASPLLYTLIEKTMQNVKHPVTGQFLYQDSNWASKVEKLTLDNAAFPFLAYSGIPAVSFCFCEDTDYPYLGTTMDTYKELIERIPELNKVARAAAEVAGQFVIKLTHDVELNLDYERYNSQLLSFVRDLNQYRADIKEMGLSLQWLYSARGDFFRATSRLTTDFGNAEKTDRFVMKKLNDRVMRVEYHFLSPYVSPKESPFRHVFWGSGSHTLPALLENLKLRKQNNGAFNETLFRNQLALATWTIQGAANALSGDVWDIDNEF

B1: 3H8 (antibody, V domains shown)
VH: QVQLVQSGAEVKKPGESLRISCKGSGYSFTSYWISWVRQMPGKGLEWMGRIDPSDSYTNYSPSFQGHVTISADKSISTAYLQWSSLKASDTAMYYCARHPPRSTRGDYGMDVWGQGTMVTVSS
VL: QAVVTQPPSVSGTPGQRVTISCSGSNSNIGSYIVNWYQQLPGTAPKLLIWGNDRRPSGVPDRVSASKSGTSASLAISGLQSEDEGDYYCAAWDNILNNYVFGPGTQLTVL
notes: Human IgG1, converted from a phage scFv clone
[1]
  binding result: binds

B2: VEGF-Trap (Fc fusion, UniProt P17948 129-230, looked up)
chain: SDTGRPFVEMYSEIPEIIHMTEGRELVIPCRVTSPNITVTLKKFPLDTLIPDGKRIIWDSRKGFIISNATYKEIGLLTCEATVNGHLYKTNYLTHRQTNTIIDVVLSPSHGIELSVGEKLVLNCTARTELNVGIDFNWEYPSSKHQHKKLVNRDLKTQSGSEMKKFLSTLTIDGVTRSDQGLYTCAASSGLMTKKNSTFVRVHEK
notes: domain: D2 domain;domain: D3 domain; Designed on aflibercept; also called VEGF-Trap positive control; not shown: human Fc fragment
[2]
  binding result: no binding

B3: VEGFA (VEGF165) (ligand, human, UniProt P15692-4 27-191, looked up)
chain: APMAEGGGQNHHEVVKFMDVYQRSYCHPIETLVDIFQEYPDEIEYIFKPSCVPLMRCGGCCNDEGLECVPTEESNITMQIMRIKPHQGQHIGEMSFLQHNKCECRPKKDRARQENPCGPCSERRKHLFVQDPQTCKCSCKNTDSRCKARQLELNERTCRCDKPRR
notes: also called VEGF165A; human VEGFA
[3]
  binding result: no binding (tested: 100 nM muTfR-His)
